Assay results published in the Human Domainome abundance scans (Beltran et al. 2025).
± gives the uncertainty stated by the source.

B1: Syntaxin-binding protein 4, residues 493 to 538; numbered along this chain, Q6ZWJ1 (parent)
chain: LDMDCLPYGWEEAYTADGIKYFINHVTQTTSWIHPVMSVLNLSRSE

Variants of: B1
Assay: abundance fitness (aPCA) (normalised: wild type 0, dead -1); higher = more abundant; growth selection in yeast, the domain comes from the species named
Details: Homo sapiens

Abundance fitness, by site and new letter:
V36: N 0.571 ± 0.14, G 0.528 ± 0.082
K20: Y -0.783 ± 0.15, M -0.848 ± 0.12, T -0.767 ± 0.13, W -0.686 ± 0.1, V -0.717 ± 0.089, P -0.141 ± 0.094, A -0.699 ± 0.089
T27: G -0.248 ± 0.079, D -0.127 ± 0.16, M 0.168 ± 0.1, R -0.234 ± 0.081, W -0.179 ± 0.1, I -0.814 ± 0.25, H 0.176 ± 0.16, V -0.872 ± 0.1, N -0.407 ± 0.2, K -0.045 ± 0.13
A13: E -0.923 ± 0.11, V -0.686 ± 0.084, P -0.922 ± 0.11, R -0.501 ± 0.08, N -0.774 ± 0.14, T -0.527 ± 0.11, K -0.534 ± 0.11, H -1.01 ± 0.17, F -0.946 ± 0.19
Y21: K -0.923 ± 0.17, F -0.91 ± 0.24, H -1.05 ± 0.22, E -0.953 ± 0.14, V -0.998 ± 0.11, C -0.908 ± 0.14, S -0.778 ± 0.11
W32: R -0.408 ± 0.085, Y -0.33 ± 0.17, P -0.581 ± 0.14
E12: T -0.518 ± 0.1, V 0.12 ± 0.08, S -0.619 ± 0.093, W -0.744 ± 0.1, G -0.818 ± 0.083, Y -0.794 ± 0.18
L6: A -0.707 ± 0.094, W -0.922 ± 0.11, G -0.754 ± 0.087, S -0.816 ± 0.1, H -0.844 ± 0.22, R -0.644 ± 0.088, V -0.511 ± 0.089
T29: D -0.777 ± 0.17, N -0.759 ± 0.14, Y -0.61 ± 0.13, W -0.556 ± 0.47, F -0.674 ± 0.12, G -0.777 ± 0.24, M -0.789 ± 0.19, H -0.847 ± 0.13
H25: G -0.687 ± 0.091, F -0.514 ± 0.35, E -0.502 ± 0.13, K 0.25 ± 0.15, M -0.94 ± 0.22
S31: P -0.788 ± 0.13, E -0.724 ± 0.16, K -0.471 ± 0.12, W -0.922 ± 0.14, Y -0.879 ± 0.18, M -0.989 ± 0.14, C -0.698 ± 0.15
F22: C -0.659 ± 0.12, L -0.854 ± 0.094, V -0.904 ± 0.099, G -0.782 ± 0.09, N -0.787 ± 0.19, P -0.895 ± 0.15
T30: Y -1 ± 0.32, K -0.692 ± 0.15, R -0.719 ± 0.093, G -0.632 ± 0.085, E -0.857 ± 0.13, Q -0.624 ± 0.12, P -0.857 ± 0.17, L -0.512 ± 0.096, C -0.142 ± 0.14
I33: A -0.248 ± 0.1, D 0.272 ± 0.15, C 0.031 ± 0.12, K -0.276 ± 0.13
S43: M -0.75 ± 0.17, V -0.44 ± 0.11, C -0.518 ± 0.13
A16: K 0.211 ± 0.098, S -0.011 ± 0.076, M -0.5 ± 0.12, G -0.445 ± 0.095, P -0.349 ± 0.096, W -0.901 ± 0.17, F -0.781 ± 0.1, V -0.57 ± 0.095, L -0.649 ± 0.09, R -0.66 ± 0.09, D -0.029 ± 0.1, Y -0.606 ± 0.1
N24: Q -0.923 ± 0.2, V -0.74 ± 0.11, E -0.715 ± 0.14, S -0.93 ± 0.14, C -0.798 ± 0.16, D -0.668 ± 0.21, R -0.876 ± 0.12
G18: M -0.846 ± 0.14, D -0.576 ± 0.11, I -0.488 ± 0.22, Y -0.787 ± 0.15, E -0.681 ± 0.13
M37: P -0.603 ± 0.14, A 0.219 ± 0.093, K 0.38 ± 0.11, F -0.292 ± 0.18, T 0.146 ± 0.11, Y -0.374 ± 0.2, C 0.056 ± 0.11, N 0.404 ± 0.21, H -0.15 ± 0.17, S 0.28 ± 0.09
H34: Q -0.555 ± 0.15, F -1.14 ± 0.31, D -0.54 ± 0.24, V -1 ± 0.14, T -0.877 ± 0.13
E46: V -0.365 ± 0.19, S -0.582 ± 0.49, K -0.478 ± 0.4, F -0.308 ± 0.3, T -0.143 ± 0.24, A -0.517 ± 0.18, L -0.668 ± 0.37
M3: A -0.058 ± 0.078, H -0.117 ± 0.099, Y -0.458 ± 0.12, W -0.692 ± 0.11, R 0.027 ± 0.076, G -0.084 ± 0.075
E11: Q -0.4 ± 0.097, T -0.733 ± 0.1, I -0.502 ± 0.13, W -0.696 ± 0.09, Y -0.909 ± 0.14, F -0.555 ± 0.12, C -0.861 ± 0.11
R44: E 0.376 ± 0.11, A -0.134 ± 0.098, G 0.377 ± 0.077, N -0.104 ± 0.14, Y -0.109 ± 0.14, T -0.285 ± 0.13, P 0.041 ± 0.12
Y14: V -0.411 ± 0.08, K -0.907 ± 0.14, D -0.976 ± 0.14, F -0.659 ± 0.14, Q -0.305 ± 0.1, A -0.645 ± 0.09, I -0.856 ± 0.12, L -0.689 ± 0.083
